Measured values: patent publication US20140030270A1
Blank lines part the entries; values can stand above or below the binder they belong to.

Assays:
[1] = molecular target: cynomolgus monkey PCSK9, V5-6xHIS tagged (cynomolgus monkey); assay: KinExA solution equilibrium, PCSK9-coated beads; cyno PCSK9
[2] = molecular target: cynomolgus monkey PCSK9, V5-6xHIS tagged (cynomolgus monkey); assay: SPR (Biacore 2000), antibody amine-coupled to the chip, PCSK9 as analyte, pH 7.4
[3] = molecular target: cynomolgus monkey PCSK9, V5-6xHIS tagged (cynomolgus monkey); assay: Biacore solution equilibrium assay, free PCSK9 measured on immobilised 21B12

Kd [1]: 0.016 nM
Kd [2]: 0.87 nM
B1: 16F12 IgG4 (16F12, anti-PCSK9 huIgG4) (antibody, V domains shown)
VH: QVHLVESGGGVVQPGRSLRLSCAASGFTFNSFGMHWVRQAPGKGLEWVALIWSDGSDEYYADSVKGRFTISRDNSKNTLYLQMNSLRAEDTAVYYCARAIAALYYYYGMDVWGQGTTVTVSS
VL: QSVLTQPPSVSAAPGQKVTISCSGSSSNIGNNFVSWYQQLPGTAPKLLIYDYNKRPSGIPDRFSGSKSGTSATLGITGLQTGDEADYYCGTWDSSLSAYVFGTGTRVTVLQ

Kd [2]: 0.36 nM
Kd [3]: 0.011 nM
B2: 21B12 IgG4 (21B12, anti-PCSK9 huIgG4) (antibody, V domains shown)
VH: QVQLVQSGAEVKKPGASVKVSCKASGYTLTSYGISWVRQAPGQGLEWMGWVSFYNGNTNYAQKLQGRGTMTTDPSTSTAYMELRSLRSDDTAVYYCARGYGMDVWGQGTTVTVSS
VL: QSALTQPASVSGSPGQSITISCTGTSSDVGGYNSVSWYQQHPGKAPKLMIYEVSNRPSGVSNRFSGSKSGNTASLTISGLQAEDEADYYCNSYTSTSMVFGGGTKLTVLQ
